Laboratory results from the supplement of paper PMC9112550, “Optimization of the antimicrobial peptide Bac7 by deep mutational scanning” (BMC Biology, 2022).

Tested on: Escherichia coli TOP10
Assay: shrunken log2 fold change of peptide-encoding DNA abundance (4.5 h post-induction vs induction); higher = less antimicrobial activity (less host growth inhibition)
Conditions: time post-induction: 4.5 h; library: site-saturation at positions 5, 18, 19, 20
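Further: peptides expressed intracellularly from a pBAD plasmid library in pooled LB shake-flask culture, induced with 0.3% L-arabinose, DNA abundance read by NGS, three biological replicates, DESeq2 with apeglm shrinkage.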

| Sequence | shrunken log2 fold change |
| --- | --- |
| RRIRTRPPRLPRPRPRPACPPRP | 0.178 |
| RRIRFRPPRLPRPRPRPDFKPRP | -0.296 |
| RRIRQRPPRLPRPRPRPYNPPRP | -0.529 |
| RRIRDRPPRLPRPRPRPHHFPRP | -0.49 |
| RRIRYRPPRLPRPRPRPCHFPRP | -0.0527 |
| RRIRIRPPRLPRPRPRPYDSPRP | -0.423 |
| RRIRMRPPRLPRPRPRPENDPRP | 3.77 |
| RRIRERPPRLPRPRPRPPGHPRP | -0.0333 |
| RRIRHRPPRLPRPRPRPAPKPRP | -0.164 |
| RRIRQRPPRLPRPRPRPVGIPRP | -0.0511 |
| RRIRPRPPRLPRPRPRPFCPPRP | -0.345 |
| RRIRMRPPRLPRPRPRPDAFPRP | 1.47 |
| RRIRVRPPRLPRPRPRPEFYPRP | -0.251 |
| RRIRHRPPRLPRPRPRPWDDPRP | -0.0102 |
| RRIRQRPPRLPRPRPRPITHPRP | -0.102 |
| RRIRQRPPRLPRPRPRPSTPPRP | -0.311 |
| RRIRFRPPRLPRPRPRPPSVPRP | 0.08 |
| RRIRARPPRLPRPRPRPHLNPRP | 0.102 |
| RRIRARPPRLPRPRPRPGHVPRP | 0.0499 |
| RRIRIRPPRLPRPRPRPSDWPRP | -0.0413 |
| RRIRWRPPRLPRPRPRPFLRPRP | 0.0966 |
| RRIRYRPPRLPRPRPRPALGPRP | 0.0458 |
| RRIRYRPPRLPRPRPRPPKDPRP | 0.0611 |
| RRIRVRPPRLPRPRPRPDLGPRP | 0.155 |
| RRIRARPPRLPRPRPRPIPRPRP | 0.526 |

| Sequence | shrunken log2 fold change |
| --- | --- |
| RRIRMRPPRLPRPRPRPVIDPRP | 0.0403 |
| RRIRYRPPRLPRPRPRPGCKPRP | -0.0843 |
| RRIRKRPPRLPRPRPRPLFYPRP | -0.0645 |
| RRIRIRPPRLPRPRPRPLKLPRP | -0.838 |
| RRIRLRPPRLPRPRPRPACQPRP | -0.0858 |
| RRIRPRPPRLPRPRPRPFHMPRP | -0.301 |
| RRIRSRPPRLPRPRPRPAWAPRP | 0.333 |
| RRIRWRPPRLPRPRPRPFFDPRP | 0.0993 |
| RRIRDRPPRLPRPRPRPLPWPRP | 0.572 |
| RRIRFRPPRLPRPRPRPAADPRP | 0.0709 |
| RRIRYRPPRLPRPRPRPRISPRP | -0.218 |
| RRIRLRPPRLPRPRPRPHSEPRP | -0.431 |
| RRIRLRPPRLPRPRPRPAMIPRP | -0.223 |
| RRIRWRPPRLPRPRPRPPPPPRP | 0.958 |
| RRIRTRPPRLPRPRPRPDMFPRP | -0.0274 |
| RRIRDRPPRLPRPRPRPRMCPRP | 0.0171 |
| RRIRFRPPRLPRPRPRPFLGPRP | 0.0749 |
| RRIRFRPPRLPRPRPRPVEAPRP | -0.103 |
| RRIRTRPPRLPRPRPRPIKMPRP | -0.0667 |
| RRIRWRPPRLPRPRPRPVMVPRP | 0.0467 |
| RRIRWRPPRLPRPRPRPLCEPRP | 0.337 |
| RRIRIRPPRLPRPRPRPMCPPRP | -0.0137 |
| RRIRPRPPRLPRPRPRPDWTPRP | -0.063 |
| RRIRSRPPRLPRPRPRPMSPPRP | -0.125 |
| RRIRSRPPRLPRPRPRPCDGPRP | 0.0333 |

| Sequence | shrunken log2 fold change |
| --- | --- |
| RRIRGRPPRLPRPRPRPIEEPRP | 0.235 |
| RRIRCRPPRLPRPRPRPRLHPRP | -0.0571 |
| RRIRQRPPRLPRPRPRPSYFPRP | -0.515 |
| RRIRFRPPRLPRPRPRPKRKPRP | 0.425 |
| RRIRYRPPRLPRPRPRPHMIPRP | -0.734 |
| RRIRLRPPRLPRPRPRPIVRPRP | -0.151 |
| RRIRYRPPRLPRPRPRPSTNPRP | -0.757 |
| RRIRSRPPRLPRPRPRPRAVPRP | 0.582 |
| RRIRYRPPRLPRPRPRPSYTPRP | -1.38 |
| RRIRLRPPRLPRPRPRPVMKPRP | -0.13 |
| RRIRYRPPRLPRPRPRPRAMPRP | -0.0749 |
| RRIRVRPPRLPRPRPRPWPCPRP | -0.22 |
| RRIRPRPPRLPRPRPRPFRPPRP | -0.0197 |
| RRIRIRPPRLPRPRPRPTTSPRP | -0.0703 |
| RRIRQRPPRLPRPRPRPKFHPRP | -0.0648 |
| RRIRVRPPRLPRPRPRPNNDPRP | -0.335 |
| RRIRRRPPRLPRPRPRPCQGPRP | -0.129 |
| RRIRHRPPRLPRPRPRPEDTPRP | 0.0437 |
| RRIRNRPPRLPRPRPRPWQPPRP | 0.104 |
| RRIRLRPPRLPRPRPRPCVVPRP | -0.457 |
| RRIRKRPPRLPRPRPRPICGPRP | 0.0699 |
| RRIRNRPPRLPRPRPRPIVWPRP | 0.0313 |
| RRIRFRPPRLPRPRPRPQARPRP | 0.148 |
| RRIRDRPPRLPRPRPRPDGMPRP | 0.232 |
| RRIRMRPPRLPRPRPRPMQNPRP | 0.365 |

| Sequence | shrunken log2 fold change |
| --- | --- |
| RRIRKRPPRLPRPRPRPMCIPRP | -0.00174 |
| RRIRSRPPRLPRPRPRPKKYPRP | -0.3 |
| RRIRYRPPRLPRPRPRPSKKPRP | -0.0925 |
| RRIRHRPPRLPRPRPRPHIRPRP | -0.0193 |
| RRIRRRPPRLPRPRPRPMPIPRP | 0.25 |
| RRIRCRPPRLPRPRPRPPYPPRP | -0.193 |
| RRIRDRPPRLPRPRPRPCLHPRP | 0.0931 |
| RRIRLRPPRLPRPRPRPHGYPRP | -0.528 |
| RRIRTRPPRLPRPRPRPDQIPRP | -0.0138 |
| RRIRERPPRLPRPRPRPFTHPRP | -0.0134 |
| RRIRTRPPRLPRPRPRPVFCPRP | -0.139 |
| RRIRNRPPRLPRPRPRPKPCPRP | 0.159 |
| RRIRGRPPRLPRPRPRPDCIPRP | 0.799 |
| RRIRVRPPRLPRPRPRPPDKPRP | 0.265 |
| RRIRKRPPRLPRPRPRPHQEPRP | 0.0459 |
| RRIRLRPPRLPRPRPRPKVFPRP | 0.0303 |
| RRIRRRPPRLPRPRPRPFSEPRP | -0.0505 |
| RRIRSRPPRLPRPRPRPEHMPRP | -0.391 |
| RRIRRRPPRLPRPRPRPVWTPRP | 0.436 |
| RRIRWRPPRLPRPRPRPKLYPRP | 0.113 |
| RRIRQRPPRLPRPRPRPFREPRP | -0.0101 |
| RRIRQRPPRLPRPRPRPYYMPRP | -0.614 |
| RRIRQRPPRLPRPRPRPAKNPRP | -0.0935 |
| RRIRYRPPRLPRPRPRPPYPPRP | -0.257 |
| RRIRARPPRLPRPRPRPYDFPRP | -0.772 |

| Sequence | shrunken log2 fold change |
| --- | --- |
| RRIRIRPPRLPRPRPRPDLYPRP | -0.408 |
| RRIRCRPPRLPRPRPRPSATPRP | 0.593 |
| RRIRQRPPRLPRPRPRPSHYPRP | -0.224 |
| RRIRIRPPRLPRPRPRPSMTPRP | -0.43 |
| RRIRRRPPRLPRPRPRPFWLPRP | 0.231 |
| RRIRFRPPRLPRPRPRPVDEPRP | 0.0494 |
| RRIRIRPPRLPRPRPRPAWCPRP | -0.0802 |
| RRIRHRPPRLPRPRPRPDNKPRP | -0.27 |
| RRIRMRPPRLPRPRPRPGMMPRP | 0.185 |
| RRIRFRPPRLPRPRPRPVTRPRP | -0.0263 |
| RRIRRRPPRLPRPRPRPVDCPRP | 0.12 |
| RRIRFRPPRLPRPRPRPNRSPRP | -0.299 |
| RRIRLRPPRLPRPRPRPVHEPRP | 0.0233 |
| RRIRSRPPRLPRPRPRPYTDPRP | -1.11 |
| RRIRPRPPRLPRPRPRPVMLPRP | -0.0771 |
| RRIRVRPPRLPRPRPRPHINPRP | -0.524 |
| RRIRHRPPRLPRPRPRPLYAPRP | -0.402 |
| RRIRSRPPRLPRPRPRPWSTPRP | -0.696 |
| RRIRCRPPRLPRPRPRPSQYPRP | -0.471 |
| RRIRPRPPRLPRPRPRPSKYPRP | -0.528 |
| RRIRHRPPRLPRPRPRPVFKPRP | 0.126 |
| RRIRARPPRLPRPRPRPTPQPRP | 0.745 |
| RRIRNRPPRLPRPRPRPHVEPRP | -0.326 |
| RRIRNRPPRLPRPRPRPHVYPRP | -0.229 |
| RRIRCRPPRLPRPRPRPFWLPRP | -0.227 |

| Sequence | shrunken log2 fold change |
| --- | --- |
| RRIRRRPPRLPRPRPRPKDRPRP | 0.09 |
| RRIRRRPPRLPRPRPRPIGVPRP | 0.273 |
| RRIRNRPPRLPRPRPRPDRNPRP | -0.0291 |
| RRIRHRPPRLPRPRPRPFIPPRP | 0.0413 |
| RRIRDRPPRLPRPRPRPKNYPRP | -0.303 |
| RRIRIRPPRLPRPRPRPVCTPRP | -0.159 |
| RRIRWRPPRLPRPRPRPIANPRP | 0.00334 |
| RRIRPRPPRLPRPRPRPPTSPRP | 0.276 |
| RRIRPRPPRLPRPRPRPFIGPRP | 0.108 |
| RRIRLRPPRLPRPRPRPFFLPRP | -0.282 |
| RRIRQRPPRLPRPRPRPLTSPRP | -0.254 |
| RRIRIRPPRLPRPRPRPNSRPRP | -0.0636 |
| RRIRQRPPRLPRPRPRPVVPPRP | -0.0392 |
| RRIRIRPPRLPRPRPRPILWPRP | -0.238 |
| RRIRFRPPRLPRPRPRPGDRPRP | 0.151 |
| RRIRSRPPRLPRPRPRPQVHPRP | -0.012 |
| RRIRGRPPRLPRPRPRPHCKPRP | 0.0392 |
| RRIRERPPRLPRPRPRPAENPRP | -0.27 |
| RRIRLRPPRLPRPRPRPFQDPRP | 0.000192 |
| RRIRYRPPRLPRPRPRPSYVPRP | -1.29 |
| RRIRKRPPRLPRPRPRPWNNPRP | 0.0165 |
| RRIRERPPRLPRPRPRPVKGPRP | 0.0229 |
| RRIRERPPRLPRPRPRPKEQPRP | 0.0401 |
| RRIRCRPPRLPRPRPRPVCYPRP | -0.269 |
| RRIRCRPPRLPRPRPRPGQWPRP | -0.125 |
